The source of these data is PMC10221436, “Reagentless Electrochemical Detection of Tumor Biomarker Based on Stable Confinement of Electrochemical Probe in Bipolar Silica Nanochannel Film”.

The target in data set [1] is prostate-specific antigen (PSA) (UniProt P07288 25-261). As to the kind of experiment: electrochemical aptasensor (MB peak current ratio); 10 ng/mL PSA; 0.01 M PBS (sodium phosphate) pH 7.4; BSA-blocked electrode; CEA incubation temperature and time not in the material. Particulars: protein: commercial.
The next data set concerns the target T1, alpha fetoprotein (AFP) (UniProt P02771 19-609).
T1 sequence: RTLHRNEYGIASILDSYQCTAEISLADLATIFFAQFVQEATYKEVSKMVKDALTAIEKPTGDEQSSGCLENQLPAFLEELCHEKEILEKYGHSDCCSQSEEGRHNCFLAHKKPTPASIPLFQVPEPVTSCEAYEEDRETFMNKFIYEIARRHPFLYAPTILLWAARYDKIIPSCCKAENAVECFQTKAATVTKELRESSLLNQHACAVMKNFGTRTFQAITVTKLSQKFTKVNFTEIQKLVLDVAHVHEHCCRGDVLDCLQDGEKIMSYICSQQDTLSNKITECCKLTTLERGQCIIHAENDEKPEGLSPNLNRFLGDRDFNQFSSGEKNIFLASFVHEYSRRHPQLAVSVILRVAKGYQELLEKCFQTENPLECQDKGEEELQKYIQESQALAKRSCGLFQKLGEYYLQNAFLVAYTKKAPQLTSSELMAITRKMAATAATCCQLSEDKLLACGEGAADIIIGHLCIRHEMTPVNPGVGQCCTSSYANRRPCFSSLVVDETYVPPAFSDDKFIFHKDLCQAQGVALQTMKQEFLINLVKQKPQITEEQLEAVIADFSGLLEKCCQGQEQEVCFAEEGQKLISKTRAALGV
As to the kind of experiment: electrochemical aptasensor (MB peak current ratio); 10 ng/mL AFP; 0.01 M PBS (sodium phosphate) pH 7.4; BSA-blocked electrode; CEA incubation temperature and time not in the material. As to conditions: protein: commercial.

The target in data set [2] is carcinoembryonic antigen (CEA) (UniProt P06731 35-685). Description: electrochemical aptasensor (DPV, CV, EIS); 1 pg/mL-1 ug/mL CEA; LOD 0.22 pg/mL (not a Kd); 0.01 M PBS (sodium phosphate) pH 7.4; BSA-blocked electrode; CEA incubation temperature and time not in the material. As to conditions: protein: commercial.
Data set [3] deals with cancer antigen 15-3 (CA15-3) (UniProt P15941 24-1097). As to the kind of experiment: electrochemical aptasensor (MB peak current ratio); 10 uU/mL CA15-3; 0.01 M PBS (sodium phosphate) pH 7.4; BSA-blocked electrode; CEA incubation temperature and time not in the material. As to conditions: protein: commercial.
The next data set concerns the target T2, C-reactive protein (CRP) (UniProt P02741 19-224).
T2 sequence: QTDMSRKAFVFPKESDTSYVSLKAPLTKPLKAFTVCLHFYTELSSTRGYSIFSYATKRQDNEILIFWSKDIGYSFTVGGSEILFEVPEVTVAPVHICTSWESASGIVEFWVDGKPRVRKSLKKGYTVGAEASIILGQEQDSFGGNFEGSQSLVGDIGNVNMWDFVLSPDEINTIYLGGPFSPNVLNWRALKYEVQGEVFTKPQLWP
As to the kind of experiment: electrochemical aptasensor (MB peak current ratio); 10 ng/mL CRP; 0.01 M PBS (sodium phosphate) pH 7.4; BSA-blocked electrode; CEA incubation temperature and time not in the material. As to conditions: protein: commercial; chain copies: 5.

carcinoembryonic antigen (CEA), sequence (P06731 35-685): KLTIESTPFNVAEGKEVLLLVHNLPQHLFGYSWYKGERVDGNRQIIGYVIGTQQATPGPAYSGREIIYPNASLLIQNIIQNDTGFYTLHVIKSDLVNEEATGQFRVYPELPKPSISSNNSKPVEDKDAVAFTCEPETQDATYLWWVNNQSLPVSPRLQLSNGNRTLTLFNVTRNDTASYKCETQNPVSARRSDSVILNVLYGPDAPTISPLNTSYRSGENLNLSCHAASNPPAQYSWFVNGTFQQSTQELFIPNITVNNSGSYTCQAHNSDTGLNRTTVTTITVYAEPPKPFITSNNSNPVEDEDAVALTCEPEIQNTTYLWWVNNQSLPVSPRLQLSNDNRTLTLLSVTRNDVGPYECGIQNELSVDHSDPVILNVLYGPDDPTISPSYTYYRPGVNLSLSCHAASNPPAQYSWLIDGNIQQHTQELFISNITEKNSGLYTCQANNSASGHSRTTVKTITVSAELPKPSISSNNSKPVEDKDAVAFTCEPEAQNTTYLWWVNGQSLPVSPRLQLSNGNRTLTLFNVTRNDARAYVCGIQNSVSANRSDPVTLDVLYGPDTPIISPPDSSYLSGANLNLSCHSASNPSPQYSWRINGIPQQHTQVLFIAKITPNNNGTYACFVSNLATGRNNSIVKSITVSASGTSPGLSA
cancer antigen 15-3 (CA15-3), sequence (P15941 24-1097): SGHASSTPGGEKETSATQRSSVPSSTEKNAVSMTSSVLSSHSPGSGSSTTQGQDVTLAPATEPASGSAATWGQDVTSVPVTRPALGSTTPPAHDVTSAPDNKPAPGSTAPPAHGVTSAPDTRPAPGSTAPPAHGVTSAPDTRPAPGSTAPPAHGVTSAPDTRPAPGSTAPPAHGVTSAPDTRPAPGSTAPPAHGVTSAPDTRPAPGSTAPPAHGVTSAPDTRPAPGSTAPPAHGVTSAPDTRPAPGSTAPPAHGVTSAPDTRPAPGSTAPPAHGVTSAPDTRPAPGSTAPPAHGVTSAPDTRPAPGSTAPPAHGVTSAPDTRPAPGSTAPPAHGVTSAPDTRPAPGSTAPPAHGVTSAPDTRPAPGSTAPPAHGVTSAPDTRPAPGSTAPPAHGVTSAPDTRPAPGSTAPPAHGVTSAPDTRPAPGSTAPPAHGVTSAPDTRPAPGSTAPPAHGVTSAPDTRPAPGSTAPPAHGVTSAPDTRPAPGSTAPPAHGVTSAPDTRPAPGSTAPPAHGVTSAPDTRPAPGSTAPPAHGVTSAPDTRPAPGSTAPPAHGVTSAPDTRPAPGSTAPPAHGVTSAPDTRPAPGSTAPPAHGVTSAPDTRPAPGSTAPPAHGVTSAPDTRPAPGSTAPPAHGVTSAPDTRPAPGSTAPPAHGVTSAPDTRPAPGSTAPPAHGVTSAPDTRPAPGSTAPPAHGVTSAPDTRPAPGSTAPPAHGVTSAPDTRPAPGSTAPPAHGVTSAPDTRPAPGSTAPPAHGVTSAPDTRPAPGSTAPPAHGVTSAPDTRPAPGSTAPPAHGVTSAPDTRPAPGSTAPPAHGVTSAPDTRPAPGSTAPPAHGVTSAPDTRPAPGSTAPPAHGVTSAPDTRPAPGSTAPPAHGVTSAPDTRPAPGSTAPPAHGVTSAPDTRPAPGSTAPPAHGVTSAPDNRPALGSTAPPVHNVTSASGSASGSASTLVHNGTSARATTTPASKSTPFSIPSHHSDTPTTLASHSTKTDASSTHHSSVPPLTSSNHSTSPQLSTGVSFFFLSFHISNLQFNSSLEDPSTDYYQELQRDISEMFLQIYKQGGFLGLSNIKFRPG
prostate-specific antigen (PSA), sequence (P07288 25-261): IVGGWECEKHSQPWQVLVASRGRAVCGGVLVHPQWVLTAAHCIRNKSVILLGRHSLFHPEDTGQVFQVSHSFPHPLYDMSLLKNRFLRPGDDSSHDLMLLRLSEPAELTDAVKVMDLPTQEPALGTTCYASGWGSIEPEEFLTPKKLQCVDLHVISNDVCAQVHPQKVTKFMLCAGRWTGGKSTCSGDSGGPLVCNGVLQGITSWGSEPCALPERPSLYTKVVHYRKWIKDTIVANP

B1: CEA aptamer (ssDNA)
DNA: ATACAGCTTCAATT
modifications: 3'-NH2, immobilized via glutaraldehyde on amino-silica film
For the molecule B1, the binding result is given as “no binding” in data set [1]; “no binding” with alpha fetoprotein (AFP); “binds” in data set [2]; “no binding” in data set [3]; “no binding” with C-reactive protein (CRP).
